One molecule from US20230374151A1 (GlaxoSmithKline, published 2023) can be followed below.

The target in test [1] is T1, TnMUC1 (aberrantly glycosylated MUC1) on tumour cells (human, UniProt P15941 24-1255, truncated Tn / sialyl-Tn O-glycans on Ser/Thr (aberrant glycosylation)).
T1 construct: whole, on cells; also called Tn/STnMUC-1; TnMUC1-positive MDA-MB-468 cells
As to the kind of experiment: flow cytometry on MDA-MB-468 cells, scFv pre-complexed with anti-His-PE; experiment 75-14. As to the method:
(§1) Cells were detached and cells were re-suspended in appropriate cell culture media or transferred to Falcon tube. A sample of each cell suspension was then diluted 1:5 with DPBS (to give a final volume of 0.5 mL) and the number of viable cells per mL (based on trypan blue exclusion) were determined for each cell suspension using the Vi-CELL XR Cell Viability Analyser (Default cell type setting used). Cell suspensions were then diluted in appropriate cell culture media and seeded into fresh cell culture flasks at a density of 6.25×10⁴ viable cells per cm². Cells were incubated in a humidified incubator at 37° C. with 5% CO₂ for 48 hours (or until required). On the day of assay, cells were detached from flasks, resuspended in appropriate cell culture media (if appropriate) and the number of viable cells per mL counted as described previously. Cell suspensions were then centrifuged at 500×g for 5 minutes before resuspending cell pellets in FACS Buffer at a density of 4×10⁶ viable cells per mL.
(§2) scFv proteins were diluted to 62.5 nM in DPBS and dispensed into row A of a 96-well V-bottom plate before performing a 1:4 serial dilution in FACS Buffer down the plate to give 25 μL (final volume) per well (FACS Buffer in row H only). […]

The target in test [2] is T1, TnMUC1 (aberrantly glycosylated MUC1) …. As to the kind of experiment: flow cytometry on MDA-MB-468 cells, scFv pre-complexed with anti-His-PE; mean. As to the method: as §1, §2
(In flow cytometry, cells or beads pass a laser one at a time.)

Test [3] has the same target. As to the kind of experiment: flow cytometry on TnMUC1-positive Jurkat cells, His-tagged scFv pre-complexed with anti-His-PE, n=1 representative.
Test [4] shares this target. As to the kind of experiment: flow cytometry on MDA-MB-468 cells, scFv pre-complexed with anti-His-PE; experiment 75-13. As to the method: as §1, §2

As usually defined, the EC50 is the concentration needed to bring the measured effect to its halfway point. By pEC50 is commonly meant the negative decadic logarithm of the EC50, by convention in mol/L. High values mean a low EC50, low ones a high EC50. In general, EC50 (read off the curve) refers to the concentration giving half of the maximal effect. A low value points to an effect from little substance.

T1 sequence (P15941 24-1255): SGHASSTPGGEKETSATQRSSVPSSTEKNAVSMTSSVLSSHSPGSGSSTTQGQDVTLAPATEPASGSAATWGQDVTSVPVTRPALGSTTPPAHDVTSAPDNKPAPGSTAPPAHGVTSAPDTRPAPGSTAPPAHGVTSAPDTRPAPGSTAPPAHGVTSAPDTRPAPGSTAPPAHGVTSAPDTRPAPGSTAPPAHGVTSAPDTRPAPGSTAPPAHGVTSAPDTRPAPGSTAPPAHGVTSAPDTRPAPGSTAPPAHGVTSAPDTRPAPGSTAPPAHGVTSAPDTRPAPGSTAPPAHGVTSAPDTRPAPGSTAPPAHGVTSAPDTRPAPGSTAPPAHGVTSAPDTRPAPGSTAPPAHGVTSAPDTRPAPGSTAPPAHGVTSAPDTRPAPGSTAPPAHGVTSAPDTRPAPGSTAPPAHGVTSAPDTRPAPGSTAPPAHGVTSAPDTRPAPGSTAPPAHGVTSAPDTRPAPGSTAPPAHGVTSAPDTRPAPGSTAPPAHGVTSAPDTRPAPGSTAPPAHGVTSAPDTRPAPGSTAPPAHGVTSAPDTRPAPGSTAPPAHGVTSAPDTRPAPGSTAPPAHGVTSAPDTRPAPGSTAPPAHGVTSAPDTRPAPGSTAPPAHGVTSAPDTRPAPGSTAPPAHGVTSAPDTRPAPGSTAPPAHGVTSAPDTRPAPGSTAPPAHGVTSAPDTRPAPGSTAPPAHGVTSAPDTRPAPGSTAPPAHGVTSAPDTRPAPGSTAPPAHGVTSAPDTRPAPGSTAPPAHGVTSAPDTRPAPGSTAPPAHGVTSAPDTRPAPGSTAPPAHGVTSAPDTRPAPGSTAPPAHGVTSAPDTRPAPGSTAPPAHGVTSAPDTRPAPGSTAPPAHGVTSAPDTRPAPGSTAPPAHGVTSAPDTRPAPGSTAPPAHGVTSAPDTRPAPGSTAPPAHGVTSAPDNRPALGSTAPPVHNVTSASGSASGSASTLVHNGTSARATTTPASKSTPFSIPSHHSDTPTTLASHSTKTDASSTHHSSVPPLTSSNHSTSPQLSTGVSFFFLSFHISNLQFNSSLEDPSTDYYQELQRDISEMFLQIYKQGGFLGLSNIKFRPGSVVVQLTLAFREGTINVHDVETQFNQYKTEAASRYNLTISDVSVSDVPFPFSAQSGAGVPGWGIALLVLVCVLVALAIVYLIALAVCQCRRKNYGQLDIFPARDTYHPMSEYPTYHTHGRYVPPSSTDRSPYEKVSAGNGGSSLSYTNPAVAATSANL

B1: humanised anti-TnMUC1 scFv protein 9P1 (88A), VL-VH humanised control (scFv)
scFv: DIVMTQSPDSLAVSLGERATINCKSSQSLLNSGDQKNYLTWYQQKPGQPPKLLIYWASTRESGVPDRFSGSGSGTDFTLTISSLQAEDVAVYYCQNDYSYPLTFGQGTKVEIKGGGGSGGGGSGGGGSGGGGSQVQLVQSGAEVKKTGSSVKVSCKASGYTFTDHAIHWVRQAPGQALEWMGHFSPGNTDIKYNDKFKGRVTLTVDRSMSTAYMELSSLRSEDTAMYYCKTSTFFFDYWGQGTMVTVSSAAAHHHHHH
notes: Control scFv designed from a humanised antibody of WO2015/159076 (10D2 is said to come from Ab2, so 10D1 by implication from Ab1); Neat supernatant of construct 10D1 in the Octet assay; purified protein 9P1 in Biacore and flow cytometry; also called 10D1
Take B1: the EC50 in test [1] was 3.18 nM; in test [2], 3.09 nM; in test [4] it was 3 nM. Further, the pEC50 in test [1] was 8.5; in test [2] it was 8.51; in test [4] it was 8.52. Further, the “EC50 (read off the curve)” value in test [3] is around 6 nM.
